From publication PMC2651628

Key:
CD44-CFP = CD44-CFP (UniProt P16070); test: FRET or BRET; u-adFRET (acceptor-depletion FRET with linear spectral unmixing) in U251MG cells co-transfected with YFP (Venus) acceptor and CFP donor fusions, fixed in 4% paraformaldehyde; FRET efficiency by region of the cell (cytosol, peripheral, focal adhesion)
CFP-vinculin = CFP-vinculin (UniProt P18206); test: as above
Sequence of UniProt P18206 (P18206 whole entry): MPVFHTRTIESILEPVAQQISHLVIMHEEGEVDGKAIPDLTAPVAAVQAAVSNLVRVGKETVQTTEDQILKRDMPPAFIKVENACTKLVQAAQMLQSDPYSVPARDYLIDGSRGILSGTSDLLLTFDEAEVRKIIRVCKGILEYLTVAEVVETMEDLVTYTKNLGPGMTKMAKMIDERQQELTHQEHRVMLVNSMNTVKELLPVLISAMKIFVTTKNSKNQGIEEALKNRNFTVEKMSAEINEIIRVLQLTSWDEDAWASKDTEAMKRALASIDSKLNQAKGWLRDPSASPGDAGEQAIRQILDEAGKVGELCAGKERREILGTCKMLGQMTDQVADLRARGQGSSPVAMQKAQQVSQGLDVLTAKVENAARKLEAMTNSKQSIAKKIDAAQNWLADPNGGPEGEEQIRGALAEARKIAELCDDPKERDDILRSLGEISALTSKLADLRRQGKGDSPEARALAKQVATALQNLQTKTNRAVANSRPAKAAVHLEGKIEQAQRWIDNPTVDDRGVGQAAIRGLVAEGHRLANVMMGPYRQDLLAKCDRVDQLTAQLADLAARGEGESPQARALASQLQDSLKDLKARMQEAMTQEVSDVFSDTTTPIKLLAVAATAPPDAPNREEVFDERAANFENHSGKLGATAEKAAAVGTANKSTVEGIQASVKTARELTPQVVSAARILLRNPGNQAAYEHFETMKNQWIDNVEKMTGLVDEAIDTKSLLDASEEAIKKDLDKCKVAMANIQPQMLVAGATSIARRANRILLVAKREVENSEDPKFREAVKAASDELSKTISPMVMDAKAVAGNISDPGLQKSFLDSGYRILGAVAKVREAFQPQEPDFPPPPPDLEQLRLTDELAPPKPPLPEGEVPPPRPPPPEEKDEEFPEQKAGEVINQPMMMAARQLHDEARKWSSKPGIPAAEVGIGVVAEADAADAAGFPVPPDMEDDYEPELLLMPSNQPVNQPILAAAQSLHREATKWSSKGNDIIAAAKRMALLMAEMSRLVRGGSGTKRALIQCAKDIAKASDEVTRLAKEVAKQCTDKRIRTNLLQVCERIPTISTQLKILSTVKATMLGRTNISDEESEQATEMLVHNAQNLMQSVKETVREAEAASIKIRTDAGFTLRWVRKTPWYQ

Sequence of UniProt P16070 (P16070 21-742): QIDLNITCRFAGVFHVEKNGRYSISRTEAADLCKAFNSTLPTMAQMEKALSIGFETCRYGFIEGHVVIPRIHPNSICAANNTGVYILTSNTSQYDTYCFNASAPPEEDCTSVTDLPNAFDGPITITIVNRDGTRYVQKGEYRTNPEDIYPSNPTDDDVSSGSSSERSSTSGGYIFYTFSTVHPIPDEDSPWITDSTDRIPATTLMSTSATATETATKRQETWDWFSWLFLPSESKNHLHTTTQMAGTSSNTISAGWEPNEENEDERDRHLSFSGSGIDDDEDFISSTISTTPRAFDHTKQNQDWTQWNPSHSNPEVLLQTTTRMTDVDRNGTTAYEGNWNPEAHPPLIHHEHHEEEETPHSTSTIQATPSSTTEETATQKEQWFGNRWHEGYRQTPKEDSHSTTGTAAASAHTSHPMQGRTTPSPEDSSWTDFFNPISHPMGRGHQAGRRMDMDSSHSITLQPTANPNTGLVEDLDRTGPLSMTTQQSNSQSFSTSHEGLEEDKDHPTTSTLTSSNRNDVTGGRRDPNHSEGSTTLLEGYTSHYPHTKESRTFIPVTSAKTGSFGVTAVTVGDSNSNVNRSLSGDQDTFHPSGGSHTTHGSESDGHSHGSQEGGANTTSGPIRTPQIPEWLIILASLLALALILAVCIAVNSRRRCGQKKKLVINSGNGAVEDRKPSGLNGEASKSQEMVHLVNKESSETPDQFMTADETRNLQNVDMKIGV

FRET efficiency (cytosol) (CD44-CFP): -7
FRET efficiency (peripheral) (CD44-CFP): -2
FRET efficiency (FA, focal adhesion) (CFP-vinculin): 19
Substance: YFP-hMena (human Mena fused to monomeric Venus) (from UniProt Q8N8S7 1-591) (natural protein)
